System: supercharged variant of human trypsinogen-1 (PRSS1 sc)
Sequence (chain, as listed by the source mutant): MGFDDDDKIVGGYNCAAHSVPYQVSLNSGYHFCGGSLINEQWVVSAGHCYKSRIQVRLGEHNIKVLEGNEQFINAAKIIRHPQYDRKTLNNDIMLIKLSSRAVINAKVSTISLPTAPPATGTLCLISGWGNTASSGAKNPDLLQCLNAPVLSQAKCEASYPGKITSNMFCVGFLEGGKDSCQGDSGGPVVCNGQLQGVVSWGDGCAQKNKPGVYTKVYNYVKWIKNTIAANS

**Q.** With trypsin as the substance, how does the “autoactivation (trypsin activity on CBZ-GPR-pNA after incubation with trypsin)” value read?
**A.** Its value is “PRSS1 sc (SEQ ID NO 01) does not show a significant autoactivation”.

Reference: patent US20160237419
